Substitutions are numbered along the chain they refer to. Names and notes keep the numbering of the source.
B1: recombinant CMP1 LC (light chain of clostridial mosquitocidal protein 1) (protein)
chain: LQIRVFNYNDPIDGENIVELRYHNRSPVKAFQIVDGIWIIPERYNFTNDTKKVPDDRALTILEDEVFAVRENDYLTTDVNEKNSFLNNITKLFKRINSSNIGNQLLNYISTSVPYPVVSTNSIKARDYNTIKFDSIDGRRITKSANVLIYGPSMKNLLDKQTRAINGEEAKNGIGCLSDIIFSPNYLSVQTVSSSRFVEDPASSLTHELIHALHNLYGIQYPGEEKFKFGGFIDKLLGTRECIDYEEVLTYGGKDSEIIRKKIDKSLYPDDFVNKYGEMYKRIKGSNPYYPDEKKLKQSFLNRMNPFDQNGTFDTKEFKNHLMDLWFGLNESEFAKEKKILVRKHYITKQINPKYTELTNDVYTEDKGFVNGQSIDNQNFKIIDDLISKKVKL
B2: catalytically inactive CMP1 LC E209Q mutant (protein)
chain: B1 chain with E208Q

How the values were obtained:
[1] = biological target: recombinant An. gambiae syntaxin1A fragment
[2] = biological target: An. gambiae syntaxin H252N mutant
[3] = biological target: An. gambiae syntaxin M257V mutant
[4] = biological target: An. gambiae syntaxin Q261E T262R double mutant
[5] = biological target: An. gambiae syntaxin T264V Q265S double mutant
[6] = biological target: An. gambiae syntaxin L271V mutant
[7] = biological target: recombinant human syntaxin1A fragment, Q16623
Sequence of recombinant human syntaxin1A fragment, Q16623 (Q16623 whole entry, looked up, the tested form may be a part): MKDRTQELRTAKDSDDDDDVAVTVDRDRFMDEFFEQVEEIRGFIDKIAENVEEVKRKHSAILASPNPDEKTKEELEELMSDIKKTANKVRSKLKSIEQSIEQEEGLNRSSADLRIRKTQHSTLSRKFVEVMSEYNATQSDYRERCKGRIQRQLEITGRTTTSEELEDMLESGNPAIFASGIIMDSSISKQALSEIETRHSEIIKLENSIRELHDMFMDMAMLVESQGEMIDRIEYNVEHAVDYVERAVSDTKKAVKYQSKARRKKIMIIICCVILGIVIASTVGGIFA

| Protein | cleavage of recombinant SNARE protein (SDS-PAGE / Western blot) [1] | cleavage of syntaxin mutant (Western blot) [2] | cleavage of syntaxin mutant (Western blot) [3] | cleavage of syntaxin mutant (Western blot) [4] | cleavage of syntaxin mutant (Western blot) [5] | cleavage of syntaxin mutant (Western blot) [6] | cleavage of recombinant SNARE protein (SDS-PAGE / Western blot) [7] |
| --- | --- | --- | --- | --- | --- | --- | --- |
| B1 | CMP1 LC cleaves the mosquito syntaxin resulting in a band of lower molecular weight that corresponds to cleavage of C-terminus of syntaxin | Syntaxin mutants were cleaved with less efficiency than non-mutated syntaxin | Syntaxin mutants were cleaved with less efficiency than non-mutated syntaxin | Syntaxin mutants were cleaved with less efficiency than non-mutated syntaxin | Syntaxin mutants were cleaved with less efficiency than non-mutated syntaxin | the L271V mutant completely abolished cleavage | CMP1 LC was not able to cleave the recombinant human syntaxin1A |
| B2 | no cleavage was observed by the catalytically inactive CMP1 LC E209Q mutant |  |  |  |  |  |  |

Source: US20190364907
